The Human Domainome abundance scans (Beltran et al. 2025)

B1: Transcriptional repressor p66-beta, residues 415 to 455; numbered along this chain, Q8WXI9 (parent)
chain: VEPFVCAQCRTDFTPHWKQEKNGKILCEQCMTSNQKKALKA
B2: 1-phosphatidylinositol 4,5-bisphosphate phosphodiesterase gamma-2, residues 772 to 827; numbered along this chain, P16885 (parent)
chain: RTVKALYDYKAKRSDELSFCRGALIHNVSKEPGGWWKGDYGTRIQQYFPSNYVEDI

Variants of: B1
Assay: abundance fitness (aPCA) (normalised: wild type 0, dead -1); higher = more abundant; growth selection in yeast, the domain comes from the species named
Details: Homo sapiens

Abundance fitness, by site and new letter:
I25: C -0.192; S -0.246; L -0.158; K -0.026; R -0.168; F -0.132; A -0.306; D 0.714
E28: A -0.122; M -0.159; W -0.307; C 0.074; T 0.029; L -0.181; N 0.03; H -0.066; K -0.062; Y -0.16; R -0.343; I -0.418
F13: T 0.039; A 0.139; K -0.629; Q -0.593; E -0.007; D -0.21; S -0.164; R -0.144
R10: I 0.521; W 0.338; E 0.27; V 0.703; P 0.352; A 0.904; L 0.585
K18: E 0.098; D -0.099; P -0.165; T -0.164; M -0.011; S 0.021
P3: K -0.118; G 0.22; C 0.488; V -0.057; T -0.066
T14: Q -0.078; F -0.056; V 0.144; Y 0.264; E -0.041; R -0.237; S -0.042; G -0.395; L -0.035
K37: Y -0.116; S -0.056; D -0.191; C -0.309; I -0.092; A 0.018; N -0.226
K36: M -0.078; G -0.006; A -0.062; N 0.14; I -0.198; F -0.324; S -0.113
H16: C 0.072; M -0.1; P -0.23; W 0.017; L -0.272; Q -0.14; R -0.05; T 0.09; G -0.022
K40: L -0.467; A -0.025; V -0.121; T 0.071; R 0.285; G 0.06; H -0.125; S -0.073
F4: S -0.169; N 0.34; P -0.208; E -0.134; R -0.19; K -0.137; D 0.282; I 0.125; M 0.64
N22: G 0.439; V 0.193; L -0.241; S 0.382; F -0.377; Y 0.19
P15: A -0.011; L -0.018; W -0.401; R -0.15; T 0.078; Q -0.137
C9: G -0.262; W -0.999; H 0.389; P -0.049; R -0.436; Q -0.09; K -0.148
D12: T -0.016; N 0.187; Q -0.208; V 0.312; K -0.274; S 0.117; L -0.198
L39: D -0.558; K -0.015; Y 0.577; S 0.094; I 0.122
E20: P -0.631; G -0.034; R -0.314; T -0.315; A -0.498
A38: D 0.046; L -0.053; T 0.687; S 0.066; R -0.19; E 0.167; G -0.213; M -0.181; K 0.059; V -0.04
C6: R -1; G -1.02; W -0.955; E -1.02; Y -0.23; L -0.939; N -0.317
S33: K -0.222; T -0.01; Q -0.017; E -0.007; R -0.122; D 0.002; W -0.379
M31: T -0.054; Q 0.05; L -0.274; Y 0.161
K21: G 0.145
K24: C -0.213; S -0.228; E 0.17; Q 0.097
Q29: S -0.156; I -0.177; K 0.086; F -0.153; M -0.14; Y -0.329; H 0.333; W -0.3
N34: K -0.254; M -0.371; T -0.199; L -0.327; H -0.077; Q -0.083; E 0.127; C -0.197
C27: S -0.739; V -1.11; A -1.01; W -1.02; G -1.05; E -0.319; Q -0.79; D -0.504
V1: M 0.212; G 0.024; E 0.067; T -0.187; N -0.178; S -0.444
L26: F 0.003; P -0.125; R -0.145; V -0.196; K -0.218
Q8: R 0.843; K 0.788; P -0.393; E 0.849; V 0.896; L 0.723; M 0.657; H 0.58; C 0.506; S 0.839
Q19: S -0.044; A 0.106; G 0.323; N 0.136; K 0.143; E 0.163; T -0.346
T32: C -0.177; A -0.047; Q -0.173; V -0.127; M -0.145; W -0.453; L -0.312
E2: G -0.299; K -0.324; S -0.074; I -0.342; P -0.29; Y -0.114; D 1.14
W17: Q 0.523; V 0.082; S 0.127; P -0.135; I 0.013; D 0.285; R 0.092; K 0.387
V5: F -0.288; S 0.136; L 0.18; C -0.351; P -0.29; W -0.405; Q 0.14; A 0.116; K 0.027
Q35: Y 0.116; E 0.025; V -0.339; K -0.136; C -0.218; T 0.018; L -0.365; G -0.152; S -0.087; D -0.103
G23: V 0.092; T 0.045; H 0.385; R 0.003
A7: L -0.158; V 0.363; Y -0.309; H 0.534; S 0.523; K 0.09; C 0.325
C30: Q -0.795; W -1.07; H -0.672
T11: F -0.306; Q 0.312; R 0.1; D 0.066; C 0.183; W -0.133; H 0.346; G 0.354; P -0.025
A41: V 0.153; S 0.004; K -0.091; C -0.215; G 0.01; E -0.02

Variants of: B2
Assay: as above
Details: Homo sapiens

Abundance fitness: each site, then its substitutions
V3: M -0.017; C -0.267; I -0.689
K4: M -0.127; F -0.393; C -0.068; G -0.782; V 0.055; W -0.375; R -0.205; Q -0.148; T -0.288; Y 0.019; D -0.809; E -0.216; A -0.259; S -0.514; I 0.049
R1: M -0.07; V 0.257; C -0.495; I -0.141; T 0.417; Y 0.164; W 0.23; G -0.328; E -0.056
T2: C -0.344; I -0.111; H -0.603; W -0.883; G -0.578; L -0.315; N -0.587; E -0.279; M -0.241; Y -0.177; A -0.287; Q -0.094; K -0.207; F -0.702; S -0.089; V 0.037
A5: F -0.895; I -0.903; G -0.868; H -0.976; E -0.908
